One data set deals with F381L/V461A KIVD (Lactococcus lactis, UniProt A0A0B8QZ66, form not given/V461A). The data set is described as follows: coupled enzymatic assay of KIVD decarboxylation activity. Type of data set: biochemical. The settings on record: for kcat: substrate of V461A/F381L KIVD, 30° C., pH 6.8. From the text: (§1) Protein Expression and Purification. Both gene fragments encoding wild type and F381L/V461A KIVD were amplified from plasmid pZE_LeuABCDKA6 using primers hiskivd_tevfwd and hiskivd_bamrev. After digestion with BamHI, the gene fragments were inserted into expression plasmid pQE9 (Qiagen) to yield pQE_hiskivd_wt and pQE_hiskivd_FL. The ADH6 gene fragment was amplified from yeast genomic DNA using primers hisadh_tevfwd and hisadh_bamrev, digested with BamHI and inserted into pQE9 to generate pQE_hisadh6. Similarly, genes encoding G462D and G462D/S139G LeuA were amplified from plasmid pZE_LeuABCDKA6 using primers hisleua_tevfwd and hisleua_bamrev. After digestion with BamHI, the PCR products were ligated into pQE9 to create pQE_hisleua_GD and pQE_hisleua_GS. The resulting expression plasmids pQE_hiskivd_wt, pQE_hiskivd_FL, pQE_hisadh6, pQE_hisleua_GD and pQE_hisleua_GS were transformed into E. coli strain BL21(DE3) harboring pREP4 (Qiagen). Cells were inoculated from an overnight pre-culture at 1/100 dilution and grown in 200 ml 2XYT rich medium containing 50 mg/L ampicillin and 25 mg/L kanamycin. At an OD600 of 0.6, recombinant proteins were expressed by induction of the cell cultures with 0.1 mM IPTG, followed by incubation at 30° C. overnight. Cell pellets were lysed by sonication in a buffer containing 250 mM NaCl, 2 mM DTT, 5 mM imidazole, and 50 mM Tris pH 9.0. By applying a stepwise gradient of imidazole (up to 250 mM), enzymes were purified from crude cell lysates through Ni-NTA column chromatography. The fractions of highest purity were pooled and buffer-exchanged using Amicon Ultra centrifugal filters (Millipore). Storage buffer 1 ([…], pH 8.0, 1 mM MgSO4, and 20% glycerol) was used for LeuA and ADH6, and storage buffer 2 ([…], pH 8.0, 1 mM MgSO4, 0.2 mM ThDP, and 20% glycerol) was used for KIVD. The concentrated protein solutions were aliquoted (100 μl) into PCR tubes and flash frozen at −80° C. for long term storage.
(§2) Enzymatic Assay of KIVD. Substrate 2-ketoisovalerate (KIV) was purchased from Sigma-Aldrich, and (S)-2-keto-4-methylhexanoate (KHV) was custom synthesized by AsisChem. Inc. Protein concentration was determined by measuring UV absorbance at 280 nm. The decarboxylation activity of KIVD was measured at 30° C. using a coupled enzymatic assay method. Excess ADH6 was used to reduce aldehyde into alcohol, and concomitantly, cofactor NADPH was oxidized to NADP+. The assay mixture contained 0.2 mM NADPH, 0.1 μM ADH6 and 0.1-20 mM 2-keto acids in assay buffer (50 mM potassium phosphate buffer, pH 6.8, 1 mM MgSO4, 0.5 mM ThDP) with a total volume of 0.2 mL. The reactions were started by adding 2 μl KIVD (final concentration: for KIV, 20 nM wt KIVD, 200 nM F381L/V461A KIVD; for KHV, 50 nM both), and the consumption of NADPH was monitored at 340 nm (extinction coefficient, 6.22 mM^−1 cm^−1). Kinetic parameters (kcat and Km) were determined by fitting initial velocity data to the Michaelis-Menten equation using Origin.

In the next data set the target is wild type KIVD (Lactococcus lactis, UniProt A0A0B8QZ66). Described as above. Type of data set: biochemical. The settings on record: for kcat: substrate of Wild type KIVD, 30° C., pH 6.8.
Description: as §1, §2

A further data set deals with CC(C)C(=O)C(=O)O. The data set is described as follows: measurement of LeuA activity (DTNB). It is filed as biochemical, E. coli. The conditions noted are these: 30° C., pH 8.0.
Description: as §1
(§3) Measurement of LeuA activity. The assay mixture contained 100 mM KCl, 2 mM MgCl2, 1 mM acetyl-CoA, and 100 mM Tris pH 8.0 with a total volume of 100 μl. 100 nM G462D or G462D/S139G LeuA was reacted with 2-ketoisovalerate in a concentration range from 25 μM to 1 mM for 10 minutes at 30° C. While 4 μM G462D or 1.5 μM G462D/S139G LeuA was reacted with (S)-2-keto-3-methylvalerate in a concentration range from 50 μM to 2 mM for 30 minutes at 30° C. The reactions were stopped by adding 0.3 ml of ethanol. Then 0.2 ml of a fresh 1 mM solution of 5,5′-Dithio-Bis (2 Nitrobenzoic Acid) in 100 mM Tris buffer pH 8.0 was added, and the yellow color product was measured at 412 nm. The values obtained were corrected for unspecific hydrolysis by subtracting the absorbance of controlled samples without addition of 2-keto acids. A molar extinction coefficient of 13,600 M^−1 cm^−1 was used in the final calculations.

The test system of another data set is CC[C@H](C)C(=O)C(=O)O. Nature of the data set: measurement of LeuA activity (DTNB). Type of data set: biochemical, E. coli. The conditions noted are these: 30° C., pH 8.0.
Description: as §1, §3

In the next data set the target is T1, G462D LeuA (Escherichia coli, UniProt P09151, G462D).
T1 construct: His tag (pQE9 vector, Ni-NTA purified) (N); TEV protease site (ENLYFQG, encoded by the forward primer) (N); made in house; host or cells: E. coli BL21(DE3) harboring pREP4
T1 sequence (P09151 whole entry G462D): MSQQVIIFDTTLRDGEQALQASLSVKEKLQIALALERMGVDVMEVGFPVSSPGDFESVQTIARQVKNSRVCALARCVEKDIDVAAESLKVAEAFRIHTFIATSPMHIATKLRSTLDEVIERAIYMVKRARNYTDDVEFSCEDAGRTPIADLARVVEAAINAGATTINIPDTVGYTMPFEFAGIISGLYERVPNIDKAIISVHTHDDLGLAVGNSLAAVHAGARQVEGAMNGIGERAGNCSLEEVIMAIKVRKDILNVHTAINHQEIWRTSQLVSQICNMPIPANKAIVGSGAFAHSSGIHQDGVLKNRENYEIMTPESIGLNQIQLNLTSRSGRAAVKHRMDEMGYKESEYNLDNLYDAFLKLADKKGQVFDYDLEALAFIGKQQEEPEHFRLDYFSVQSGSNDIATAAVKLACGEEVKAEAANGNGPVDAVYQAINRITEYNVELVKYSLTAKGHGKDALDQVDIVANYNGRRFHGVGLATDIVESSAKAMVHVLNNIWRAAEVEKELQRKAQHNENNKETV
The data set is described as follows: measurement of LeuA activity (DTNB). The conditions noted are these: for kcat: substrate of G462D LeuA, 30° C., pH 8.0. Type of data set: biochemical, E. coli.
Description: as §1, §3

For data set [1] the following is noted: cited from earlier work.
For another data set, the target named is T2, G462D/S139G LeuA (Escherichia coli, UniProt P09151, G462D/S139G).
T2 construct: His tag (pQE9 vector, Ni-NTA purified) (N); TEV protease site (ENLYFQG, encoded by the forward primer) (N); made in house; host or cells: E. coli BL21(DE3) harboring pREP4
T2 sequence (P09151 whole entry S139G/G462D): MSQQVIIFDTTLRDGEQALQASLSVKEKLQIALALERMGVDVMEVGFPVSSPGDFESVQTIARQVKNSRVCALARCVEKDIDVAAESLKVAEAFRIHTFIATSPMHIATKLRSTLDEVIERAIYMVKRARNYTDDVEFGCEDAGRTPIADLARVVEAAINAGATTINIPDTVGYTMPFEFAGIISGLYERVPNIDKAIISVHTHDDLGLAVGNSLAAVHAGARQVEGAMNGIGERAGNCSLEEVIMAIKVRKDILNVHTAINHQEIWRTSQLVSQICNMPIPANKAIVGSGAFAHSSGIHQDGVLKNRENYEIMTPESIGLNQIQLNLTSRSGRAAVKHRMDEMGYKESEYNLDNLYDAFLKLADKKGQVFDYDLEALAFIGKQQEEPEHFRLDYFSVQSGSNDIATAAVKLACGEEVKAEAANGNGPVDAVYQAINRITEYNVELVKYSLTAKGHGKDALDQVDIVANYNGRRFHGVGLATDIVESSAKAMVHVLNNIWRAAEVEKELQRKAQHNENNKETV
The data set is described as follows: measurement of LeuA activity (DTNB). Type of data set: biochemical, E. coli.
Description: as §1, §3

Substrate in data set [2]: CC(C)C(=O)C(=O)O
Nature of the data set: coupled enzymatic assay of KIVD decarboxylation activity. Type of data set: biochemical, Lactococcus lactis. The settings on record: other: substrate of Wild type KIVD, 30° C., pH 6.8.
Description: as §1, §2

Substrate in data set [3]: CC[C@H](C)CC(=O)C(=O)O
The data set is described as above. Type of data set: biochemical, Lactococcus lactis. The settings on record: other: substrate of Wild type KIVD, 30° C., pH 6.8.
Description: as §1, §2

Where [4] appears, read: other: substrate of G462D/S139G LeuA.

Converted amounts (≈) assume the structure as drawn.

What is called kcat is the number of substrate molecules converted per active site and unit of time at saturation. A word on the Km: it is the concentration of substrate that gives half-maximal velocity. The term kcat/Km denotes the turnover number divided by the Michaelis constant.

`CC[C@H](C)CC(=O)C(=O)O` [(S)-2-keto-4-methylhexanoate]: the “specificity constant kcat/Km relative to that towards 2-ketoisovalerate” value on F381L/V461A KIVD (F381L/V461A KIVD) is 40 fold; at wild type KIVD (wild type KIVD) it was 4 fold. Further, the kcat on F381L/V461A KIVD is 3.0 ± 0.1 s⁻¹; at F381L/V461A KIVD (listed as 2-keto-4-methylhexanoate) it was 3.0 s⁻¹; at wild type KIVD, 10.8 s⁻¹.

For the molecule “G462D/S139G LeuA (Escherichia coli K-12; G462D/S139G)”, in the data set on CC(C)C(=O)C(=O)O (setting [4]), the Km came out at 104 ± 5 µM, the kcat was found to be 2.1 ± 0.1 s⁻¹ and the kcat/Km is 20000 M⁻¹ s⁻¹. For the same molecule, in the data set on CC[C@H](C)C(=O)C(=O)O (setting [4]), the Km was 144 ± 13 µM, the kcat amounted to 0.12 ± 0.02 s⁻¹ and the kcat/Km was 830 M⁻¹ s⁻¹.

With `CC(C)C(=O)C(=O)O` [2-Ketoisovalerate], the kcat at F381L/V461A KIVD was 2.7 ± 0.6 s⁻¹; on F381L/V461A KIVD (listed as 2-ketoisovalerate), 2.7 s⁻¹; on wild type KIVD, 38.3 s⁻¹; on G462D LeuA it was 6.0 s⁻¹.

Consider `CCCCCCCO` [1-heptanol], for which the water solubility in [1] was 1.2 mg/mL (≈ 10.3 mM).

In the case of “G462D LeuA (Escherichia coli K-12; G462D)”, in the data set with CC(C)C(=O)C(=O)O (other: substrate of G462D LeuA), the Km is 182 µM, the kcat was 6.0 ± 0.3 s⁻¹ and the kcat/Km amounted to 33000 M⁻¹ s⁻¹. For the same molecule, in the data set with CC[C@H](C)C(=O)C(=O)O (other: substrate of G462D LeuA), the Km was found to be 55 µM, the kcat worked out at 0.018 ± 0.001 s⁻¹ and the kcat/Km came out at 330 M⁻¹ s⁻¹.

As to `CC[C@H](C)C(=O)C(=O)O` [(S)-2-keto-3-methylvalerate], the “kcat, fold less than that for 2-ketoisovalerate” value at G462D LeuA (G462D LeuA) was found to be 333 fold. In addition, the kcat at G462D LeuA amounted to 0.018 s⁻¹; on G462D/S139G LeuA (substrate of G462D/S139G LeuA, 30° C., pH 8.0), 0.12 s⁻¹. For the same molecule, the “increase of kcat by the S139G mutation” value at G462D/S139G LeuA (G462D/S139G versus G462D LeuA) amounted to 7 fold.

For the molecule `CCCCCO` [1-Pentanol], in data set [1], the water solubility was 23 mg/mL (≈ 261 mM).

B1: wild type KIVD (Lactococcus lactis subsp. lactis) (protein)
chain: MYTVGDYLLDRLHELGIEEIFGVPGDYNLQFLDQIISRKDMKWVGNANELNASYMADGYARTKKAAAFLTTFGVGELSAVNGLAGSYAENLPVVEIVGSPTSKVQNEGKFVHHTLADGDFKHFMKMHEPVTAARTLLTAENATVEIDRVLSALLKERKPVYINLPVDVAAAKAEKPSLPLKKENSTSNTSDQEILNKIQESLKNAKKPIVITGHEIISFGLEKTVSQFISKTKLPITTLNFGKSSVDEALPSFLGIYNGKLSEPNLKEFVESADFILMLGVKLTDSSTGAFTHHLNENKMISLNIDEGKIFNESIQNFDFESLISSLLDLSEIEYKGKYIDKKQEDFVPSNALLSQDRLWQAVENLTQSNETIVAEQGTSFFGASSIFLKPKSHFIGQPLWGSIGYTFPAALGSQIADKESRHLLFIGDGSLQLTVQELGLAIREKINPICFIINNDGYTVEREIHGPNQSYNDIPMWNYSKLPESFGATEERVVSKIVRTENEFVSVMKEAQADPNRMYWIELILAKEDAPKVLKKMGKLFAEQNKS
B1: in data set [2], the Km turned out to be 2200 µM, the kcat was found to be 38.3 ± 9.8 s⁻¹ and the kcat/Km worked out at 17000 M⁻¹ s⁻¹. In addition, in [3], the Km was 140 µM, the catalytic constant (kcat) was 10.8 ± 0.3 s⁻¹ and the kcat/Km worked out at 77000 M⁻¹ s⁻¹.

Values taken from US8298798B2, “Production of C5-C8 alcohols using evolved enzymes and metabolically engineered microorganisms” (The Regents of the University of California, priority 2008, dated 2012).
